The source of these data is patent US20220380463A1 (Adimab, published 2022).

By koff is commonly meant the first-order rate constant of dissociation. A higher koff goes with fast dissociation.

Numbering of substitutions follows the chain as printed.

The assay deals with T1, Cynomolgus CD3εδ Fc heterodimer (Cy CD3ε Fc / CD3δ Fc-HIS) (cynomolgus, UniProt Q95LI8 22-100).
T1 chain 1: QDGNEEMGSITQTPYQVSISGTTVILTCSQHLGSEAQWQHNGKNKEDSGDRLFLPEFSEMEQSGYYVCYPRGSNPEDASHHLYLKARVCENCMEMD
T1 chain 2: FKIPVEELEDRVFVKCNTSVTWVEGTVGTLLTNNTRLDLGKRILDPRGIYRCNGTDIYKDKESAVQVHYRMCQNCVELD
The assay can be described thus: BLI (Octet), IgG on AHC sensor, pH 6.0. For orientation: In BLI a coated tip is dipped into the sample, and binding shifts an interference pattern.

B1: SAD10319_P05_G03 (ADI-57415) (antibody, V domains shown)
VH: QVQLVQSGAEVKKPGASVKVSCKASGYTFHSYNMHWVRQAPGHRLEWMGWINPDTGATDYSQKFQGRVTITRDTSASTAYMELSSLRSEDTAVYYCARDAYGRYFYDVWGQGTLVTVSS
VL: DIVMTQSPDSLAVSLGERATINCKSSQSLLNARTGKNYLAWYQQKPGQPPKLLIYWASTRESGVPDRFSGSGSGTDFTLTISSLQAEDVAVYYCKQSYSRRTFGGGTKVEIK
notes: IgG; also called Ab143
B1 returned a koff of 0.0167 s⁻¹.

B2: SAD10319_P06_E10 (ADI-57428) (antibody, V domains shown)
VH: B1 VH with H30T, S31Q, N33D, H43Q, R44T, W50D, P53A, D54G, A57V, D59V
VL: B1 VL
notes: IgG; also called Ab157
With B2, the koff is 0.00575 s⁻¹. Compared with the last molecule, the koff is about 2.9-fold lower.

B3: SAD10319_P06_C10 (ADI-57423) (antibody, V domains shown)
VH: QVQLVQSGAEVKKPGASVKVSCKASGYTFTEYVMHWVRQAPGPRLEWMGDIDAGTGATKYSQKFQGRVTITRDTSASTAYMELSSLRSEDTAVYYCARDAYHHYFYDVWGQGTLVTVSS
VL: B1 VL
notes: IgG; also called Ab152
As for B3, the koff came to 0.00318 s⁻¹.

B4: SAD10319_P06_C12 (ADI-57424) (antibody, V domains shown)
VH: B1 VH with H30D, N33E, D54L, D59K, A100H, R103H
VL: B1 VL
notes: IgG; also called Ab153
As for B4, the koff is 0.00756 s⁻¹.

B5: SAD10319_P06_D12 (ADI-57425) (antibody, V domains shown)
VH: B3 VH with T30N, E31R, P43Q, D50G, Y101H, H102R
VL: B1 VL
B5 displayed a koff of 0.0192 s⁻¹.

B6: SAD10319_P05_H06 (ADI-57417) (antibody, V domains shown)
VH: B3 VH with V33D, R44T, D50W, K59V, H102G, H103R, V108H
VL: B1 VL
notes: IgG; also called Ab145
B6 displayed a koff of 0.0104 s⁻¹.

B7: SAD10319_P06_E09 (ADI-57427) (antibody, V domains shown)
VH: B1 VH with H30T, S31A, N33D, H43Q, D59V
VL: B1 VL
notes: IgG; also called Ab156
As for B7, the koff was determined as 0.0122 s⁻¹. This koff and that of the molecule before are within 1.5-fold of each other.

B8: LAD9966_P01_A08 (ADI-57445) (antibody, V domains shown)
VH: QVQLVQSGAEVKKPGASVKVSCKASGFNIKDYYMHWVRQAPGQRLEWMGWIDLENANTIYDAKFQGRVTITRDTSASTAYMELSSLRSEDTAVYYCARDAYGRYFYDVWGQGTLVTVSS
VL: B1 VL with Y38H
notes: IgG; also called Ab176
B8 returned an off-rate (koff) of 0.0035 s⁻¹.

B9: SAD10319_P06_A10 (ADI-57419) (antibody, V domains shown)
VH: B1 VH with H30T, S31G, N33E, H43Q, D54V, D59A, R103H, V108H
VL: B1 VL
notes: IgG; also called Ab148
As for B9, the koff came out at 0.0246 s⁻¹.

B10: LAD9956_P01_C03 (ADI-57440) (antibody, V domains shown)
VH: B8 VH
VL: B1 VL with R33H, G35H
notes: IgG; also called Ab171
Consider B10, for which the koff was found to be 0.000913 s⁻¹.

B11: SAD10319_P06_A11 (ADI-57420) (antibody, V domains shown)
VH: B1 VH with H30D, Y32I, N33A, H43Q, D54A, A57N, R103H, V108H
VL: B1 VL
notes: IgG; also called Ab149
In turn, B11 registered a koff of 0.00279 s⁻¹.

B12: SAD10319_P06_G11 (ADI-57432) (antibody, V domains shown)
VH: B3 VH with E31D, V33D, P43Q, D50W, D52N, T55D, G56A, K59V, H102G, V108H
VL: B1 VL
notes: IgG; also called Ab162
As for B12, the koff came out at 0.00924 s⁻¹.

B13: SAD10319_P06_B11 (ADI-57422) (antibody, V domains shown)
VH: B1 VH with N33D, H43Q, N52D, P53A, D54G, D59T, R103H
VL: B1 VL
notes: IgG; also called Ab151
In the case of B13, the koff amounted to 0.0101 s⁻¹.

B14: LAD9963_P01_E06 (ADI-57443) (antibody, V domains shown)
VH: B8 VH
VL: B1 VL with R33H
The molecule B14 displayed a koff of 0.000866 s⁻¹.

B15: SAD10319_P06_H10 (ADI-57435) (antibody, V domains shown)
VH: B3 VH with T30E, E31S, V33D, D50W, A57N, R72A, T74E, A76T, A100H, H102G
VL: B1 VL
notes: IgG; also called Ab165
Regarding B15, the koff came to 0.0267 s⁻¹.

B16: SAD10319_P05_G04 (ADI-57416) (antibody, V domains shown)
VH: B1 VH with H30T, N33G, H43Q, N52D, D54V, Y101H, V108H
VL: B1 VL
notes: IgG; also called Ab144
B16 had a koff of 0.00389 s⁻¹.

B17: SAD10319_P06_H08 (ADI-57434) (antibody, V domains shown)
VH: B3 VH with T30E, E31S, V33D, P43Q, R44T, D50W, K59T
VL: B1 VL
notes: IgG; also called Ab164
As to B17, the koff worked out at 0.0231 s⁻¹.

B18: SAD10319_P06_B10 (ADI-57421) (antibody, V domains shown)
VH: B3 VH with P43Q
VL: B1 VL
notes: IgG; also called Ab150
The molecule B18 registered a koff of 0.002 s⁻¹.

B19: SAD10319_P06_F07 (ADI-57429) (antibody, V domains shown)
VH: B3 VH with T30E, E31S, V33D, P43Q, R44P, D50W, K59T
VL: B1 VL
notes: IgG; also called Ab159
The molecule B19 yielded a koff of 0.0251 s⁻¹.

B20: SAD10319_P06_H07 (ADI-57433) (antibody, V domains shown)
VH: QVQLVQSGAEVKKPGASVKVSCKASGYTFVSYNMHWVRQAPGQRLEWMGSINAGDANTKYSQKFQGRVTITRDTSASTAYMELSSLRSEDTAVYYCARDHYGHYFYDVWGQGTLVTVSS
VL: B1 VL
notes: IgG; also called Ab163
Turning to B20, the koff is 0.00901 s⁻¹.

B21: SAD10319_P06_G09 (ADI-57431) (antibody, V domains shown)
VH: B3 VH with T30E, E31S, V33D, D50W, K59T
VL: B1 VL
notes: IgG; also called Ab161
In turn, B21 came in with a koff of 0.00258 s⁻¹.

B22: SAD10319_P06_F10 (ADI-57430) (antibody, V domains shown)
VH: B1 VH with H30V, N33D, H43P, R44S, N52D, D54N, D59V, A100H, R103H
VL: B1 VL
notes: IgG; also called Ab160
B22 showed a koff of 0.00663 s⁻¹.

B23: SAD10319_P06_E08 (ADI-57426) (antibody, V domains shown)
VH: B3 VH with T30I, E31K, P43Q, A53P, G54D, K59E, A100D
VL: B1 VL
notes: IgG; also called Ab155
Regarding B23, the koff amounted to 0.0105 s⁻¹. Against the preceding molecule, the koff is about 1.6-fold higher.

B24: SAD10319_P06_H11 (ADI-57436) (antibody, V domains shown)
VH: B20 VH with V30T, S31D, N33D, Q43H, S50W, N57A, K59V, H100A, V108H
VL: B1 VL
notes: IgG; also called Ab166
B24 gave a koff of 0.0285 s⁻¹.
